Columns and labels:
AncSZ = test: phosphorylation enrichment, bacterial display (enrichment ratio); higher = better substrate or ligand; peptides without Tyr show the background
EPHB1 = EPHB1 (UniProt P54762); test: as above
EPHB2 = EPHB2 (UniProt P29323); test: as above
FGFR1 = FGFR1 (UniProt P11362); test: as above
FGFR3 = FGFR3 (UniProt P22607); test: as above
Fer (mouse) = test: as above
Fes = Fes (UniProt P07332); test: as above
Fyn = Fyn (UniProt P06241); test: as above
Hck = Hck (UniProt P08631); test: as above
Jak2 = Jak2 (UniProt O60674); test: as above
MERTK = MERTK (UniProt Q12866); test: as above
c-Abl (mouse) = test: as above
c-Src = test: as above
Grb2 SH2 = Grb2 SH2 (UniProt P62993); test: SH2 binding enrichment of the phosphorylated peptide, bacterial display (enrichment ratio); higher = better substrate or ligand; peptides without Tyr show the background
SHP2-C SH2 = test: as above
c-Src SH2 = test: as above
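Wherever SH2 binding enrichment of the phosphorylated peptide, bacterial display is given: peptide library displayed on the E. coli surface as eCPX fusions, selected cells deep-sequenced, score is each peptide's frequency after selection divided by its frequency in the input.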
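Wherever phosphorylation enrichment, bacterial display is given: 11-residue human phosphosite peptides and single-mutation variants displayed on the E. coli surface, counted by deep sequencing, each peptide's frequency after selection divided by its frequency in the unselected input library; frequency after pTyr selection over input frequency; kinase dosed for 20-30% of maximal phosphorylation in three min.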

EPHB2, sequence (P29323 whole entry, looked up): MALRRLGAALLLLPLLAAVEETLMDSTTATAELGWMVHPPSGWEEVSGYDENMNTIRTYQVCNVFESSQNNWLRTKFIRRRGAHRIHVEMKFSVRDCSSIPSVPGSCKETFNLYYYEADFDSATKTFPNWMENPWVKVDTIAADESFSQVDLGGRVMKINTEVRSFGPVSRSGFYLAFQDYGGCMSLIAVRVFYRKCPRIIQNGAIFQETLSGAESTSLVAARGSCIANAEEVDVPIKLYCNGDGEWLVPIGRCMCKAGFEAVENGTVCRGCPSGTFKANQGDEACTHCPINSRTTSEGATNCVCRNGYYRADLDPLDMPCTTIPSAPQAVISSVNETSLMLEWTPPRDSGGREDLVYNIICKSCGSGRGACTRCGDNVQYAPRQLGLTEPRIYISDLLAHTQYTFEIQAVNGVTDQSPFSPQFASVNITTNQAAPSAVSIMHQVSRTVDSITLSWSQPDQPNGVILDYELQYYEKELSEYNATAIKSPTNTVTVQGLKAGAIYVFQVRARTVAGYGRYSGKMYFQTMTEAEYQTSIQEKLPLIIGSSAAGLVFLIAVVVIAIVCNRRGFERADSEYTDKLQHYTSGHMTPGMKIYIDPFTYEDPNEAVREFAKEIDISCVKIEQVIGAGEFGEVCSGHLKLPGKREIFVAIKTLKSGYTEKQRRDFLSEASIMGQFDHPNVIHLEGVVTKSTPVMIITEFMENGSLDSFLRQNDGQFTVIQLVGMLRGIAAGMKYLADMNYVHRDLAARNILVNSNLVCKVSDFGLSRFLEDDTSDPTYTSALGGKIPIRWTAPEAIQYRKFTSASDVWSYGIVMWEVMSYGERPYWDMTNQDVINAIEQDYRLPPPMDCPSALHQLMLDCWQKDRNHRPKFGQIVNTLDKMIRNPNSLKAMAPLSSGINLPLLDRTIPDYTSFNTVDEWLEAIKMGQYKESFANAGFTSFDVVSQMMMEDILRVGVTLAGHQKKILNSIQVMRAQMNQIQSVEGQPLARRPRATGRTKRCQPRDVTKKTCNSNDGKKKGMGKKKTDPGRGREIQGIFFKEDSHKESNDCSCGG
MERTK, sequence (Q12866 whole entry, looked up): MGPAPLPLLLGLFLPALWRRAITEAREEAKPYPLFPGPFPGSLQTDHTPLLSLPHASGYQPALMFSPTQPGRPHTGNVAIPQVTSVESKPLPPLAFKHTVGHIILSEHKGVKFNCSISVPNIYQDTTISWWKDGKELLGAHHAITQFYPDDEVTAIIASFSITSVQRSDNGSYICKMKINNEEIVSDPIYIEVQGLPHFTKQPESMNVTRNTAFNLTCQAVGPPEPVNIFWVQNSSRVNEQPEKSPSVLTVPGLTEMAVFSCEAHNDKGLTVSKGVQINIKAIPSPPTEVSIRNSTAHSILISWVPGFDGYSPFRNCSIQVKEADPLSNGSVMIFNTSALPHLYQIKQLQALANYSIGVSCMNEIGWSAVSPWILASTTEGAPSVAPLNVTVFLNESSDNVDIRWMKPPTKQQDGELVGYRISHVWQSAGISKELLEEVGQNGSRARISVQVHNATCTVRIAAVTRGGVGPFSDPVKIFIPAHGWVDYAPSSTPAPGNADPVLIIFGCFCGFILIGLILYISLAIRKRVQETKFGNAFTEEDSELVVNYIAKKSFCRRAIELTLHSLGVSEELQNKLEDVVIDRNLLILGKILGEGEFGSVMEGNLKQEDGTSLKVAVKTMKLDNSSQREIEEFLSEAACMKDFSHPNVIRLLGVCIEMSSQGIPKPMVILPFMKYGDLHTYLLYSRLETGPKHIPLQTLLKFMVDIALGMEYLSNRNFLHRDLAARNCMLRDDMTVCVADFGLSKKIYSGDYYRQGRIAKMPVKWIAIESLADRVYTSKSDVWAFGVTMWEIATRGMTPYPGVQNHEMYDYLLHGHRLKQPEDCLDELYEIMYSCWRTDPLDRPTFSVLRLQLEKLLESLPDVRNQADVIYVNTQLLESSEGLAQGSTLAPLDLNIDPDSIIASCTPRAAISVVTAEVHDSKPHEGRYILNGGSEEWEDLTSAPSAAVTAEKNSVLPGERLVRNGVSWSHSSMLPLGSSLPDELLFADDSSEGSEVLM
Jak2, sequence (O60674 whole entry, looked up): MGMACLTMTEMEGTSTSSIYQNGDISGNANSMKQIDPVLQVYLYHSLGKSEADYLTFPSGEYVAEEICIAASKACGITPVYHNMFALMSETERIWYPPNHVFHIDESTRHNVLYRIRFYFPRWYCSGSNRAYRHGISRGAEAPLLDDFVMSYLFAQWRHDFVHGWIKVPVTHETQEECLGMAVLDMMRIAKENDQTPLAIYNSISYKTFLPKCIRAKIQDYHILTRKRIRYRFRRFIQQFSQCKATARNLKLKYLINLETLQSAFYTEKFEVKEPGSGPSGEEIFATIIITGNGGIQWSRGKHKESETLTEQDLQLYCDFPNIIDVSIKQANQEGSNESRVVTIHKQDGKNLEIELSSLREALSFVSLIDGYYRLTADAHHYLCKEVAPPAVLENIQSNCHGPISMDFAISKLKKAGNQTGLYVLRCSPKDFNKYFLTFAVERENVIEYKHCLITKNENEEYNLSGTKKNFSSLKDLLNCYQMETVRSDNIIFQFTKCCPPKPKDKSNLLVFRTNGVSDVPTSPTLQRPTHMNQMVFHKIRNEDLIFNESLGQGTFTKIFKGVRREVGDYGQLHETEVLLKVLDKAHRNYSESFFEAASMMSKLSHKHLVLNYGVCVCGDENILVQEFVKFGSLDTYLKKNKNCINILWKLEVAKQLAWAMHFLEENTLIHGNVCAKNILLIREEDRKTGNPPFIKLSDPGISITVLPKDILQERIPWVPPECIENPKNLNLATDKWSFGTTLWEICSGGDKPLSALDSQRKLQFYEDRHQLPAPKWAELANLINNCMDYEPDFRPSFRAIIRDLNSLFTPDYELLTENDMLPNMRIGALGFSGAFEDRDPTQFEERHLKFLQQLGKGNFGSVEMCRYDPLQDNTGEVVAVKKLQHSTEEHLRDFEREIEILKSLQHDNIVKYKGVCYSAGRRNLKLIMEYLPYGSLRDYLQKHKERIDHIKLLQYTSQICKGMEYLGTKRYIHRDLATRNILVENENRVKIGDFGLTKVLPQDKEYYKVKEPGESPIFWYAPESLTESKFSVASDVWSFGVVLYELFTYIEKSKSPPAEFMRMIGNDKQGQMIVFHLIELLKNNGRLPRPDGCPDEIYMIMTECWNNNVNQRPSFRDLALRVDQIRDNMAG
FGFR3, sequence (P22607 whole entry, looked up): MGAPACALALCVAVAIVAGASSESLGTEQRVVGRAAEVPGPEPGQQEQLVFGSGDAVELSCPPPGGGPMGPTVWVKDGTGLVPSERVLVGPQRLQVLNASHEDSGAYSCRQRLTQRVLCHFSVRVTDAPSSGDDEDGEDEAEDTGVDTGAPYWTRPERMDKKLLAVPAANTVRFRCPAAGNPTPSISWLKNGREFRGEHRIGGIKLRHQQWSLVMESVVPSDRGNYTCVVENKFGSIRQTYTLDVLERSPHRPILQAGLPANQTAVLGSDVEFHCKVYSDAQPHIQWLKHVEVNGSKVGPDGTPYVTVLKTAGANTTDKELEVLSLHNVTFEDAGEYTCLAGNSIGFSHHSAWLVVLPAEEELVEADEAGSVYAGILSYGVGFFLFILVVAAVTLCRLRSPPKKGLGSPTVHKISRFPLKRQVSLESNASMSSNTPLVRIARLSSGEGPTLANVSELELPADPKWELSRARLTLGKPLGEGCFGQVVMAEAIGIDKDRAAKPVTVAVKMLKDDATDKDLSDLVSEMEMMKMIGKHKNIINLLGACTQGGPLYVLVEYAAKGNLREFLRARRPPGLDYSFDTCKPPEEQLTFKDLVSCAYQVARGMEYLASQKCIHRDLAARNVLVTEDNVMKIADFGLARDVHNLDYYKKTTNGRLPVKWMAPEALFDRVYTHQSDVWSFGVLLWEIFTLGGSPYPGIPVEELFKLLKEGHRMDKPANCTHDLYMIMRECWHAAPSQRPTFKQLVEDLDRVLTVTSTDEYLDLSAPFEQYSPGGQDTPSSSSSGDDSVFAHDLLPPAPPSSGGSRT
Fyn, sequence (P06241 whole entry, looked up): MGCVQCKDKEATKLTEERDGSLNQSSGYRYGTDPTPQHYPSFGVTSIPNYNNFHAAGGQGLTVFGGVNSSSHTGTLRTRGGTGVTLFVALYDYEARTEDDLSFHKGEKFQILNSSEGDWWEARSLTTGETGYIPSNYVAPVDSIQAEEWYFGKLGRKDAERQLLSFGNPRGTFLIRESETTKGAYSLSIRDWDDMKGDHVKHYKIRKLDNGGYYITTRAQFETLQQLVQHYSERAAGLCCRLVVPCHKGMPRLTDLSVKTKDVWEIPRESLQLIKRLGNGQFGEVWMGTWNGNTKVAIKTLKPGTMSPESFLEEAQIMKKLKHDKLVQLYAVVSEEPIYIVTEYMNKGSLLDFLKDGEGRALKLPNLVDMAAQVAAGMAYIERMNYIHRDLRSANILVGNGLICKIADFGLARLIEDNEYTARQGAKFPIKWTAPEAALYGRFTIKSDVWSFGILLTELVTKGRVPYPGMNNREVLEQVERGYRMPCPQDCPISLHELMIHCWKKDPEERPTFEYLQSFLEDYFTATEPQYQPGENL
Hck, sequence (P08631 whole entry, looked up): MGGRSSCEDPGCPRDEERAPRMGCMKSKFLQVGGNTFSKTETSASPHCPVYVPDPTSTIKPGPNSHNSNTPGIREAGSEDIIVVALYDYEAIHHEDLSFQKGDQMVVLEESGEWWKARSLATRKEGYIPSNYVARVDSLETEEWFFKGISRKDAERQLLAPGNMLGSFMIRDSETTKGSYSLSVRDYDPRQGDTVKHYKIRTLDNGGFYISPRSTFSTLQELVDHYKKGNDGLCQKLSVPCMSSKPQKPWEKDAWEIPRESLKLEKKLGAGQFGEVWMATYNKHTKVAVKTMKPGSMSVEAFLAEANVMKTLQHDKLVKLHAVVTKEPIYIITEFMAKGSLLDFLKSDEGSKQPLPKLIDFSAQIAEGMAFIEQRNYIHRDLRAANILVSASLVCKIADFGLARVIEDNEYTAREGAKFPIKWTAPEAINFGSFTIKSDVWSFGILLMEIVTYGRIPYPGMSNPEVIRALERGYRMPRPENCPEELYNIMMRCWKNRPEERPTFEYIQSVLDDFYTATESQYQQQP

Sequence | phosphorylation enrichment (AncSZ) | phosphorylation enrichment (EPHB1) | phosphorylation enrichment (EPHB2) | phosphorylation enrichment (FGFR1) | phosphorylation enrichment (FGFR3) | phosphorylation enrichment (Fer (mouse)) | phosphorylation enrichment (Fes) | phosphorylation enrichment (Fyn) | phosphorylation enrichment (Hck) | phosphorylation enrichment (Jak2) | phosphorylation enrichment (MERTK) | phosphorylation enrichment (c-Abl (mouse)) | phosphorylation enrichment (c-Src) | SH2 binding enrichment (Grb2 SH2) | SH2 binding enrichment (SHP2-C SH2) | SH2 binding enrichment (c-Src SH2)
RHFVFYFSFLL [PTEN_Y177_R173H_YF] | 1.26 | 0.547 | 1.44 | 0.496 | 0.553 | 0.18 | 0.867 | 0.538 | 0.391 | 0.607 | 0.357 | 0.703 | 0.653 | 1.88 | 0.962 | 1.4
EKKKYYDAKIE [CASP5_Y104_T106A] | 0.777 | 0.679 | 0.326 | 0.526 | 0.781 | 0.475 | 0.978 | 0.588 | 0.449 | 0.912 | 0.473 | 0.609 | 0.64 | 1.07 | 0.668 | 0.522
FGRTFYNQANM [MCCC2_Y196_I200N] | 0.939 | 0.786 | 0.509 | 0.433 | 0.695 | 0.51 | 1.06 | 0.377 | 0.503 | 0.994 | 0.411 | 0.842 | 0.493 | 0.706 | 0.556 | 0.497
LEIETCRRLLD [KRT12_Y429_Y429C] | 1.2 | 0.939 | 0.913 | 0.722 | 1.2 | 0.474 | 1.33 | 0.635 | 0.759 | 1.07 | 0.411 | 1.01 | 0.415 | 0.883 | 0.64 | 0.648
PIYEGYGLPHA [ACTA1_Y171_A172G] | 1.32 | 31 | 33.5 | 0.555 | 0.945 | 20.9 | 2.45 | 17.5 | 16.9 | 0.833 | 18.3 | 12.7 | 13.8 | 0.79 | 0.52 | 0.739
QDLLLYQTHSE [PKHD1_Y255_F253L] | 1.86 | 1.27 | 1.94 | 0.713 | 1.28 | 1.81 | 1.54 | 1.16 | 1.48 | 1.61 | 0.745 | 0.888 | 1.77 | 0.726 | 0.681 | 0.394
LTRDIYKNDFF [ROS1_Y2110_A2106T_YF] | 0.974 | 0.683 | 0.495 | 1.05 | 0.963 | 0.937 | 1.07 | 0.836 | 0.717 | 0.79 | 0.723 | 0.673 | 0.475 | 1.48 | 0.731 | 0.395
QTEAEYRFIFM [PTPN11_Y511_Q510E_YF] | 1.29 | 0.59 | 0.762 | 1.46 | 1.42 | 0.847 | 1.32 | 0.511 | 0.626 | 1.24 | 0.618 | 0.912 | 0.525 | 0.643 | 0.39 | 0.364
SGPRHYTIAAL [TTR_Y125_R124H] | 0.59 | 0.516 | 0.51 | 0.404 | 0.509 | 0.438 | 0.66 | 0.455 | 0.468 | 0.525 | 0.464 | 0.524 | 0.455 | 1.06 | 1.19 | 1.35
TDHLQYFDSNK [ARAP1_Y359_R358Q] | 0.809 | 0.721 | 0.651 | 0.928 | 0.84 | 0.654 | 1.31 | 0.79 | 0.697 | 0.914 | 0.607 | 0.695 | 0.656 | 1.2 | 0.94 | 0.536
LEQDEYALHSH [HADHB_Y244_R247H] | 1.45 | 0.882 | 0.669 | 0.847 | 0.805 | 0.642 | 1.24 | 0.887 | 0.598 | 1.2 | 0.578 | 1.1 | 0.665 | 0.744 | 0.561 | 0.452
NFRRGYHLQVL [CD200R1L_Y138_H135R] | 0.621 | 0.379 | 0.473 | 0.462 | 0.528 | 0.439 | 0.699 | 0.416 | 0.386 | 0.528 | 0.394 | 0.486 | 0.38 | 0.847 | 0.713 | 0.753
QGIIIYKAAFF [SLC25A4_Y187_R188K_YF] | 1.5 | 1.21 | 0.723 | 0.798 | 0.852 | 0.721 | 1.36 | 0.569 | 0.526 | 1.05 | 0.439 | 1.1 | 0.917 | 1.36 | 0.446 | 0.373
QLPRGYISIPV [BAG3_Y205] | 0.789 | 0.698 | 0.722 | 0.482 | 0.744 | 0.642 | 0.974 | 0.839 | 0.718 | 0.881 | 0.612 | 0.867 | 0.592 | 0.736 | 0.993 | 0.887
MAFDRYVAVCA [OR52J3_Y125] | 0.845 | 0.649 | 0.7 | 0.519 | 0.582 | 0.468 | 1.08 | 0.438 | 0.537 | 0.995 | 0.522 | 0.779 | 0.458 | 0.746 | 0.647 | 0.663
YTGNTYRVGDT [FN1_Y106] | 0.666 | 0.448 | 0.424 | 0.439 | 0.534 | 0.415 | 0.775 | 0.441 | 0.486 | 0.563 | 0.389 | 0.569 | 0.467 | 0.766 | 0.55 | 0.406
YETVKYFNNER [ABCB7_Y345] | 0.881 | 0.792 | 0.611 | 1.95 | 1.32 | 9.57 | 0.869 | 1.37 | 1.83 | 0.683 | 0.844 | 0.64 | 1.14 | 0.868 | 1.13 | 9.64

Sequence | phosphorylation enrichment (AncSZ) | phosphorylation enrichment (EPHB1) | phosphorylation enrichment (EPHB2) | phosphorylation enrichment (FGFR1) | phosphorylation enrichment (FGFR3) | phosphorylation enrichment (Fer (mouse)) | phosphorylation enrichment (Fes) | phosphorylation enrichment (Fyn) | phosphorylation enrichment (Hck) | phosphorylation enrichment (Jak2) | phosphorylation enrichment (MERTK) | phosphorylation enrichment (c-Abl (mouse)) | phosphorylation enrichment (c-Src) | SH2 binding enrichment (Grb2 SH2) | SH2 binding enrichment (SHP2-C SH2) | SH2 binding enrichment (c-Src SH2)
GLSSAYGDLTS [KRT8_Y427_G429D] | 0.718 | 0.56 | 0.429 | 0.506 | 0.486 | 0.479 | 0.659 | 0.454 | 0.535 | 0.535 | 0.413 | 0.536 | 0.464 | 0.878 | 0.655 | 0.608
DDFDLYGGEKF [PTPN11_Y66_Y62D_YF] | 1.28 | 0.639 | 0.659 | 0.585 | 0.727 | 1.72 | 1.38 | 2.27 | 3.11 | 1.2 | 0.475 | 0.731 | 2.14 | 0.569 | 0.545 | 0.426
PSQRHYVYYYS [PTEN_Y174_R173H] | 1.71 | 1.72 | 0.953 | 9.38 | 6.63 | 1.65 | 1.63 | 2.84 | 2.13 | 4.48 | 12.6 | 1.28 | 4.77 | 1.2 | 3.14 | 2.03
YEPDAYDDLDQ [ELP5_Y302] | 1.26 | 0.542 | 0.523 | 0.56 | 0.842 | 0.663 | 1.19 | 0.496 | 0.548 | 0.919 | 0.403 | 0.769 | 0.482 | 0.767 | 0.764 | 1.07
MDYRSYPREYG [RBM10_Y44] | 0.621 | 0.337 | 0.402 | 0.404 | 0.684 | 0.331 | 0.626 | 0.366 | 0.41 | 0.515 | 0.296 | 0.472 | 0.319 | 0.752 | 0.591 | 0.476
IVKAYYVRARA [AIPL1_Y268] | 1.01 | 0.358 | 0.47 | 0.466 | 0.471 | 0.396 | 0.936 | 0.466 | 0.419 | 0.743 | 0.502 | 0.512 | 0.361 | 0.976 | 0.923 | 0.521
YPIDHYLGKEM [G6PD_Y202_R198P] | 0.771 | 0.405 | 0.54 | 0.613 | 0.577 | 0.415 | 0.891 | 0.48 | 0.492 | 0.806 | 0.412 | 0.584 | 0.505 | 0.708 | 0.576 | 0.434
TRHDEYLEVTK [MAP1A_Y2217] | 0.882 | 0.464 | 0.547 | 0.589 | 1.11 | 0.421 | 1.03 | 0.565 | 0.399 | 0.726 | 0.343 | 0.612 | 0.401 | 1.15 | 0.598 | 0.506
SSPQPYLVPFL [TAF4_Y652] | 0.857 | 0.415 | 0.867 | 0.522 | 0.746 | 0.466 | 0.78 | 0.497 | 0.481 | 2.85 | 0.514 | 1.09 | 0.49 | 0.86 | 1.66 | 0.829
TAGEPYHDIRF [BAP1_Y223] | 0.821 | 0.555 | 0.446 | 1.54 | 1.29 | 0.523 | 0.744 | 0.498 | 0.489 | 0.64 | 0.426 | 0.429 | 0.619 | 0.899 | 0.776 | 1.94
VGEGPYLLSDL [ABCC12_Y7_I9L] | 0.839 | 0.461 | 0.559 | 0.484 | 0.605 | 0.508 | 0.941 | 0.565 | 0.432 | 0.83 | 0.385 | 0.586 | 0.71 | 0.641 | 0.547 | 0.361
TRSYDYTEGGD [FGF7_Y58_M59T] | 0.898 | 0.439 | 0.465 | 0.61 | 0.59 | 0.414 | 0.976 | 0.56 | 0.446 | 0.876 | 0.463 | 0.642 | 0.375 | 0.706 | 0.565 | 1.65
DEGVNYFMSKG [FBXO8_Y156] | 1.1 | 0.457 | 0.685 | 0.862 | 0.926 | 0.402 | 0.984 | 0.422 | 0.456 | 0.996 | 0.39 | 0.705 | 0.388 | 0.674 | 0.544 | 0.442
KNDSIYVVKGN [KIT_Y823_N822I] | 0.574 | 0.339 | 0.689 | 0.39 | 0.469 | 0.47 | 0.647 | 0.786 | 1.35 | 0.516 | 0.443 | 0.47 | 0.922 | 0.848 | 0.707 | 0.507
RLSELYLRRNP [CFAP410_Y68_R73P] | 0.813 | 0.372 | 0.477 | 0.381 | 0.533 | 0.249 | 0.83 | 0.407 | 0.631 | 0.659 | 0.377 | 0.555 | 0.317 | 0.633 | 0.303 | 0.352
TDECEYDELIV [TGM1_Y136_Y134C] | 1.41 | 1.09 | 0.842 | 0.57 | 0.865 | 1.61 | 1.13 | 2.06 | 1.8 | 0.788 | 0.604 | 0.742 | 0.529 | – | 0.29 | 0.139
